Numbered stars: 1 amine (or outer) side, 2 acyl side, 3 side chain; on linkers, the order of the positions; unused ones are H or OH. Square brackets hold non-standard residues; d marks the D form. Ends that are not written are not given here. X3 = Pro(4S-(4-(4-aminophenyl)-1,2,3-triazol-1-yl)), O=C([C@@H]1C[C@H](n2cc(-c3ccc(N[*:3])cc3)nn2)CN1[*:1])[*:2]; Cit = NC(=O)NCCC[C@H](N)C(=O)O
Molecular target: Full-length HIV-1 YU2 gp120 (HIV-1 YU2, UniProt P35961 32-498)
Experiment: ELISA

[Cit]NNI[X3]WS-NH2 [UM25 peptide triazole] was tested, and the IC50 was 18 µM.
